Laboratory results as given in patent US20250044282A1.

Biological target: HIV-1 integrase fused to HA tag at the C terminus (INHA) (HIV-1 LAI (BRU)) (UniProt P03367)

“HIV-1 CA (capsid protein) (from UniProt P03348 133-363)” gave a percentage of colocalization of 70%.
